From patent US11471462B2, “Compositions and methods for detecting and treating diabetes” (THE BROAD INSTITUTE, INC., priority 2016, dated 2022)

B1: XPO5 (protein)
chain: AMDQVNALCEQLVKAVTVMMDPNSTQRYRLEALKFCEEFKEKCPICVPCGLRLAEKTQVAIVRHFGLQILEHVVKFRWNGMSRLEKVYLKNSVMELIANGTLNILEEENHIKDALSRIVVEMIKREWPQHWPDMLIELDTLSKQGETQTELVMFILLRLAEDVVTFQTLPPQRRRDIQQTLTQNMERIFSFLLNTLQENVNKYQQVKTDTSQESKAQANCRVGVAALNTLAGYIDWVSMSHITAENCKLLEILCLLLNEQELQLGAAECLLIAVSRKGKLEDRKPLMVLFGDVAMHYILSAAQTADGGGLVEKHYVFLKRLCQVLCALGNQLCALLGADSDVETPSNFGKYLESFLAFTTHPSQFLRSSTQMTWGALFRHEILSRDPLLLAIIPKYLRASMTNLVKMGFPSKTDSPSCEYSRFDFDSDEDFNAFFNSSRAQQGEVMRLACRLDPKTSFQMAGEWLKYQLSTFLDAGSVNSCSAVGTGEGSLCSVFSPSFVQWEAMTLFLESVITQMFRTLNREEIPVNDGIELLQMVLNFDTKDPLILSCVLTNVSALFPFVTYRPEFLPQVFSKLFSSVTFETVEESKAPRTRAVRNVRRHACSSIIKMCRDYPQLVLPNFDMLYNHVKQLLSNELLLTQMEKCALMEALVLISNQFKNYERQKVFLEELMAPVASIWLSQDMHRVLSDVDAFIAYVGTDQKSCDPGLEDPCGLNRARMSFCVYSILGVVKRTCWPTDLEEAKAGGFVVGYTSSGNPIFRNPCTEQILKLLDNLLALIRTHNTLYAPEMLAKMAEPFTKALDMLDAEKSAILGLPQPLLELNDSPVFKTVLERMQRFFSTLYENCFHILGKAGPSMQQDFYTVEDLATQLLSSAFVNLNNIPDYRLRPMLRVFVKPLVLFCPPEHYEALVSPILGPLFTYLHMRLSQKWQVINQRSLLCGEDEAADENPESQEMLEEQLVRMLTREVMDLITVCCVSKKGADHSSAPPADGDDEEMMATEVTPSAMAELTDLGKCLMKHEDVCTALLITAFNSLAWKDTLSCQRTTSQLCWPLLKQVLSGTLLADAVTWLFTSVLKGLQMHGQHDGCMASLVHLAFQIYEALRPRYLEIRAVMEQIPEIQKDSLDQFDCKLLNPSLQKVADKRRKDQFKRLIAGCIGKPLGEQFRKEVHIKNLPSLFKKTKPMLETEVLDNDGGGLATIFEP
B2: VDAC2 (protein)
chain: MSWCNELRLPALKQHSIGRGLESHITMCIPPSYADLGKAARDIFNKGFGFGLVKLDVKTKSCSGVEFSTSGSSNTDTGKVTGTLETKYKWCEYGLTFTEKWNTDNTLGTEIAIEDQICQGLKLTFDTTFSPNTGKKSGKIKSSYKRECINLGCDVDFDFAGPAIHGSAVFGYEGWLAGYQMTFDSAKSKLTRNNFAVGYRTGDFQLHTNVNDGTEFGGSIYQKVCEDLDTSVNLAWTSGTNCTRFGIAAKYQLDPTASISAKVNNSSLIGVGYTQTLRPGVKLTLSALVDGKSINAGGHKVGLALELEA
B3: PHGDH (protein)
chain: AFANLRKVLISDSLDPCCRKILQDGGLQVVEKQNLSKEELIAELQDCEGLIVRSATKVTADVINAAEKLQVVGRAGTGVDNVDLEAATRKGILVMNTPNGNSLSAAELTCGMIMCLARQIPQATASMKDGKWERKKFMGTELNGKTLGILGLGRIGREVATRMQSFGMKTIGYDPIISPEVSASFGVQQLPLEEIWPLCDFITVHTPLLPSTTGLLNDNTFAQCKKGVRVVNCARGGIVDEGALLRALQSGQCAGAALDVFTEEPPRDRALVDHENVISCPHLGASTKEAQSRCGEEIAVQFVDMVKGKSLTGVVNAQALTSAFSPHTKPWIGLAEALGTLMRAWAGSPKGTIQVITQGTSLKNAGNCLSPAVIVGLLKEASKQADVNLVNAKLLVKEAGLNVTTSHSPAAPGEQGFGECLLAVALAGAPYQAVGLVQGTTPVLQGLNGAVFRPEVPLRRDLPLLLFRTQTSDPAMLPTMIGLLAEAGVRLLSYQTSLVSDGETWHVMGISSLLPSLEAWKQHVTEAFQFHF
B4: ADCK4 (protein)
chain: MWLKVGGLLRGTGGQLGQTVGWPCGALGPGPHRWGPCGGSWAQKFYQDGPGRGLGEEDIRRAREARPRKTPRPQLSDRSRERKVPASRISRLANFGGLAVGLGLGVLAEMAKKSMPGGRLQSEGGSGLDSSPFLSEANAERIVQTLCTVRGAALKVGQMLSIQDNSFISPQLQHIFERVRQSADFMPRWQMLRVLEEELGRDWQAKVASLEEVPFAAASIGQVHQGLLRDGTEVAVKIQYPGIAQSIQSDVQNLLAVLKMSAALPAGLFAEQSLQALQQELAWECDYRREAACAQNFRQLLANDPFFRVPAVVKELCTTRVLGMELAGGVPLDQCQGLSQDLRNQICFQLLTLCLRELFEFRFMQTDPNWANFLYDASSHQVTLLDFGASREFGTEFTDHYIEVVKAAADGDRDCVLQKSRDLKFLTGFETKAFSDAHVEAVMILGEPFATQGPYDFGSGETARRIQDLIPVLLRHRLCPPPEETYALHRKLAGAFLACAHLRAHIACRDLFQDTYHRYWASRQPDAATAGSLPTKGDSWVDPS
B5: TECR (protein)
chain: MKHYEVEILDAKTREKLCFLDKVEPHATIAEIKNLFTKTHPQWYPARQSLRLDPKGKSLKDEDVLQKLPVGTTATLYFRDLGAQISWVTVFLTEYAGPLFIYLLFYFRVPFIYGHKYDFTSSRHTVVHLACICHSFHYIKRLLETLFVHRFSHGTMPLRNIFKNCTYYWGFAAWMAYYINHPLYTPPTYGAQQVKLALAIFVICQLGNFSIHMALRDLRPAGSKTRKIPYPTKNPFTWLFLLVSCPNYTYEVGSWIGFAIMTQCLPVALFSLVGFTQMTIWAKGKHRSYLKEFRDYPPLRMPIIPFLL
B6: AUP1 (protein)
chain: MELPSGPGPERLFDSHRLPGDCFLLLVLLLYAPVGFCLLVLRLFLGIHVFLVSCALPDSVLRRFVVRTMCAVLGLVARQEDSGLRDHSVRVLISNHVTPFDHNIVNLLTTCSTPLLNSPPSFVCWSRGFMEMNGRGELVESLKRFCASTRLPPTPLLLFPEEEATNGREGLLRFSSWPFSIQDVVQPLTLQVQRPLVSVTVSDASWVSELLWSLFVPFTVYQVRWLRPVHRQLGEANEEFALRVQQLVAKELGQTGTRLTPADKAEHMKRQRHPRLRPQSAQSSFPPSPGPSPDVQLATLAQRVKEVLPHVPLGVIQRDLAKTGCVDLTITNLLEGAVAFMPEDITKGTQSLPTASASKFPSSGPVTPQPTALTFAKSSWARQESLQERKQALYEYARRRFTERRAQEAD
B7: MAGED1 (protein)
chain: MAQKMDCGAGLLGFQNPDACRAVCHPLPQPPASTLPLSAFPTLCDPPYSQLRDPPAVLSCYCTPLGASPAPAEASVEDSALLMQTLMEAIQISEAPPTNQATAAASPQSSQPPTANEMADIQVSAAAARPKSAFKVQNATTKGPNGVYDFSQAHNAKDVPNTQPKAAFKSQNATPKGPNAAYDFSQAATTGELAANKSEMAFKAQNATTKVGPNATYNFSQSLNANDLANSRPKTPFKAWNDTTKAPTADTQTQNVNQAKMATSQADIETDPGISEPDGATAQTSADGSQAQNLESRTIIRGKRTRKINNLNVEENSSGDQRRAPLAAGTWRSAPVPVTTQNPPGAPPNVLWQTPLAWQNPSGWQNQTARQTPPARQSPPARQTPPAWQNPVAWQNPVIWPNPVIWQNPVIWPNPIVWPGPVVWPNPLAWQNPPGWQTPPGWQTPPGWQGPPDWQGPPDWPLPPDWPLPPDWPLPTDWPLPPDWIPADWPIPPDWQNLRPSPNLRPSPNSRASQNPGAAQPRDVALLQERANKLVKYLMLKDYTKVPIKRSEMLRDIIREYTDVYPEIIERACFVLEKKFGIQLKEIDKEEHLYILISTPESLAGILGTTKDTPKLGLLLVILGVIFMNGNRASEAVLWEALRKMGLRPGVRHPLLGDLRKLLTYEFVKQKYLDYRRVPNSNPPEYEFLWGLRSYHETSKMKVLRFIAEVQKRDPRDWTAQFMEAADEALDALDAAAAEAEARAEARTRMGIGDEAVSGPWSWDDIEFELLTWDEEGDFGDPWSRIPFTFWARYHQNARSRFPQTFAGPIIGPGGTASANFAANFGAIGFFWVE
B8: PSMA3 (protein)
chain: SSIGTGYDLSASTFSPDGRVFQVEYAMKAVENSSTAIGIRCKDGVVFGVEKLVLSKLYEEGSNKRLFNVDRHVGMAVAGLLADARSLADIAREEASNFRSNFGYNIPLKHLADRVAMYVHAYTLYSAVRPFGCSFMLGSYSVNDGAQLYMIDPSGVSYGYWGCAIGKARQAAKTEIEKLQMKEMTCRDIVKEVAKIIYIVHDEVKDKAFELELSWVGELTNGRHEIVPKDIREEAEKYAKESLKEEDESDDDNM

tested on: SLC16A11; test: SLC16A11 protein-protein interaction study (immunoprecipitation, quantitative mass spectrometry); parameters: species or system human; settings: putative SLC16A11^REF interaction partners; immunoprecipitation from HEK293T cells vs empty vector control; Blandt-Altman
Text: Alternatively, these variants may result in reduced transport because they disrupt protein-protein interactions responsible for correct SLC16A11 function. To explore this possibility, SLC16A11 was immunoprecipitated from HEK293T cells expressing either REF or T2D risk SLC16A11-V5 or empty vector control and quantitative mass spectrometry was used to define the SLC16A11 interactome.
Another mechanism through which the variants could affect activity is through disruption of protein-protein interactions. To explore this possibility, quantitative mass spectrometry-based protein-protein interaction studies were performed to define the SLC16A11 interactome and evaluate if the T2D risk coding variants alter any interactions.
Beads were then washed once with lysis buffer and three times with wash buffer. After the last wash, residual wash buffer was removed, 10 μL fresh wash buffer was added, and beads were stored at −80° C. until analysis by the Proteomics Platform at the Broad Institute, as detailed in the “Proteomics Methods for SLC16A11 Protein Interaction Studies” below.
The beads from immunopurification were washed once with IP lysis buffer, then three times with PBS, the three different lysates of each replicate were resuspended in 90 uL digestion buffer (2M Urea, 50 mM Tris HCl), 2 ug of sequencing grade trypsin added, 1 hour shaking at 700 rpm. The supernatant was removed and placed in a fresh tube. The beads were then washed twice with 50 uL digestion buffer and combined with the supernatant. The combined supernatants were reduced (2 uL 500 mM DTT, 30 minutes, RT), alkylated (4 uL 500 mM IAA, 45 minutes, dark) and a longer overnight digestion performed: 2 ug (4 uL) trypsin, shake o/n, The samples were then quenched with 20 uL 10% FA and desalted on 10 mg SepPak columns.
Desalted peptides were labelled with iTRAQ reagents according to the manufacturer's instructions (AB Sciex, Foster City, Calif.). Peptides were dissolved in 30 μl of 0.5 M TEAB pH 8.5 solution and labeling reagent was added in 70 ul of ethanol. After 1 h incubation the reaction was stopped with 50 mM Tris/HCl pH 7.5. Differentially labelled peptides were mixed and subsequently desalted on 10 mg SepPak columns.
Reconstituted peptides were separated on an online nanoflow EASY-nLC 1000 UHPLC system (Thermo Fisher Scientific) and analyzed on a benchtop Orbitrap Q Exactive Plus mass spectrometer (Thermo Fisher Scientific). The peptide samples were injected onto a capillary column (Picofrit with 10 μm tip opening/75 μm diameter, New Objective, PF360-75-10-N-5) packed in-house with 20 cm C18 silica material (1.9 μm ReproSil-Pur C18-AQ medium, Dr. Maisch GmbH, r119.aq). The UHPLC setup was connected with a custom-fit microadapting tee (360 μm, IDEX Health & Science, UH-753), and capillary columns were heated to 50° C. in column heater sleeves (Phoenix-ST) to reduce backpressure during UHPLC separation. Injected peptides were separated at a flow rate of 200 nL/min with a linear 80 min gradient from 100% solvent A (3% acetonitrile, 0.1% formic acid) to 30% solvent B (90% acetonitrile, 0.1% formic acid), followed by a linear 6 min gradient from 30% solvent B to 90% solvent B. Each sample was run for 120 min, including sample loading and column equilibration times. The Q Exactive instrument was operated in the data-dependent mode acquiring HCD MS/MS scans (R=17,500) after each MS1 scan (R=70,000) on the 12 top most abundant ions using an MS1 ion target of 3×10^6 ions and an MS2 target of 5×10^4 ions. The maximum ion time utilized for the MS/MS scans was 120 ms; the HCD-normalized collision energy was set to 27; the dynamic exclusion time was set to 20 s, and the peptide match and isotope exclusion functions were enabled.
All mass spectra were processed using the Spectrum Mill software package v6.0 pre-release (Agilent Technologies) which includes modules developed by us for iTRAQ-based quantification. […]

Point of comparison: B1, “BA log fold change” value 1.14. Against it:
- B2 — the same, 1.14
- B3 — within 0.2 log units, 1.11
- B4 — within 0.2 log units, 1.11
- B5 — within 0.2 log units, 1.10
- B6 — within 0.2 log units, 1.10
- B7 — within 0.2 log units, 1.09
- B8 — within 0.2 log units, 1.09
